# Experimental data taken from US20240228579A1 (Innovent, published 2024).
# Read-outs that look alike come from different tables or passages of the source.
# T1: Human CD32A/FCGR2A protein (167his) (human, UniProt P12318 34-218, limits assumed)
# T1 construct: Bought, his-tagged; also called CD32A (H167); CD32A H167; not shown: his tag
# T1 sequence (looked up): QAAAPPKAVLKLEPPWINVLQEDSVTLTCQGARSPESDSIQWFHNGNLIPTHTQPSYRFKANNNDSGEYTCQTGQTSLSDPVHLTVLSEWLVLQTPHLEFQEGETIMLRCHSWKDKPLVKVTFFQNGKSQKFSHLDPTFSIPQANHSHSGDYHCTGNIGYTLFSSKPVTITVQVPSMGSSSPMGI
# T2: Human CD32B/FCGR2B protein (human, UniProt P31994 43-217, limits assumed)
# T2 construct: Bought, his-tagged; also called FcγRIIb; not shown: his tag
# T2 sequence (looked up): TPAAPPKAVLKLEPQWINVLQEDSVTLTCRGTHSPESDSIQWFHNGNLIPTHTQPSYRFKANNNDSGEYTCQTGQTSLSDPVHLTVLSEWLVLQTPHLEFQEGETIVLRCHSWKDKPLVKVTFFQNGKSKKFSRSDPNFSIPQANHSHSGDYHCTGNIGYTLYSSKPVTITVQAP
# T3: Human CD32A/FCGR2A protein (167Arg) (human, UniProt P12318 34-218, limits assumed)
# T3 construct: Bought, his-tagged; also called CD32A (R167); CD32A R167; not shown: his tag
# T3 sequence (looked up): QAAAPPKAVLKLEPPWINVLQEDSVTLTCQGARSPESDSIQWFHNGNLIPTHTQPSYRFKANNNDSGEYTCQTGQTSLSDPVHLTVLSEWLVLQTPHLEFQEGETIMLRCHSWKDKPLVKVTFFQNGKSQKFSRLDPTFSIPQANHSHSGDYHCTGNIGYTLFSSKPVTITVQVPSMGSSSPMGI
# T4: Claudin18.2 (cp0007, Genscript) (UniProt P56856-2 1-261, limits assumed)
# T4 construct: Bought antigen used in BLI; also called Claudin18.2 antigen; the antigen
# T4 sequence (looked up): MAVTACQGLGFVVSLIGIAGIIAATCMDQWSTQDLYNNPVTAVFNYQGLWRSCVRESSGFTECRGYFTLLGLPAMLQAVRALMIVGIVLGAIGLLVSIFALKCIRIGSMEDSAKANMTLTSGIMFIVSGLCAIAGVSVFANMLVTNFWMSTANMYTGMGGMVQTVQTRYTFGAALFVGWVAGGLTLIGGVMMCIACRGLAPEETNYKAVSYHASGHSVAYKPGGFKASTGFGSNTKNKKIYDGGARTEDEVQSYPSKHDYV
# B1: Fcmut-02 (antibody, human IgG1, kappa)
# heavy: QVQLVQSGAEVKKPGSSVKVSCKASGYSFSSYNIHWVRQAPGQGLEWMGYIAPFQGDSRYNQKFKGRVTITADKSTSTAYMELSSLRSEDTAVYYCARLNRGNSLDYWGQGTLVTVSSASTKGPSVFPLAPSSKSTSGGTAALGCLVKDYFPEPVTVSWNSGALTSGVHTFPAVLQSSGLYSLSSVVTVPSSSLGTQTYICNVNHKPSNTKVDKKVEPKSCDKTHTCPPCPAPELLGGPSVFLFPPKPKDTLMISRTPEVTCVVVDVSHEDPEVKFNWYVDGVEVHNAKTKPREEQYNSTYRVVSVLTVLHQDWLNGKEYKCKVSNKALAPIEKTISKAKGQPREPQVYTLPPSREEMTKNQVSLTCLVKGFYPSDIAVEWESNGQPENNYKTTPPVLDSDGSFFLYSKLTVDKSRWQQGNVFSCSVMHEALHNHYTQKSLSLSPGK
# light: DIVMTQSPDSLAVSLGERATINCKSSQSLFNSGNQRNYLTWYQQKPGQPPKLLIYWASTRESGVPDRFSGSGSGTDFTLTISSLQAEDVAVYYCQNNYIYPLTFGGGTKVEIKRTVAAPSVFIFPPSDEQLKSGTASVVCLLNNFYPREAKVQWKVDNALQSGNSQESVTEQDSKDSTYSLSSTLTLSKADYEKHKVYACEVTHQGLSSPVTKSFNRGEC
# notes: IgG1-mut of Fcmut-01: deletion of 329 (EU index); also called Fcmut-2
# B2: Fcmut-03 (antibody, human IgG1, kappa)
# heavy: QVQLVQSGAEVKKPGSSVKVSCKASGYSFSSYNIHWVRQAPGQGLEWMGYIAPFQGDSRYNQKFKGRVTITADKSTSTAYMELSSLRSEDTAVYYCARLNRGNSLDYWGQGTLVTVSSASTKGPSVFPLAPSSKSTSGGTAALGCLVKDYFPEPVTVSWNSGALTSGVHTFPAVLQSSGLYSLSSVVTVPSSSLGTQTYICNVNHKPSNTKVDKKVEPKSCDKTHTCPPCPAPELLGGPSVFLFPPKPKDTLMISRTPEVTCVVVDVSHEDPEVKFNWYVDGVEVHNAKTKPREEQYNSTYRVVSVLTVLHQDWLNGKEYKCKVSNKALGPIEKTISKAKGQPREPQVYTLPPSREEMTKNQVSLTCLVKGFYPSDIAVEWESNGQPENNYKTTPPVLDSDGSFFLYSKLTVDKSRWQQGNVFSCSVMHEALHNHYTQKSLSLSPGK
# light: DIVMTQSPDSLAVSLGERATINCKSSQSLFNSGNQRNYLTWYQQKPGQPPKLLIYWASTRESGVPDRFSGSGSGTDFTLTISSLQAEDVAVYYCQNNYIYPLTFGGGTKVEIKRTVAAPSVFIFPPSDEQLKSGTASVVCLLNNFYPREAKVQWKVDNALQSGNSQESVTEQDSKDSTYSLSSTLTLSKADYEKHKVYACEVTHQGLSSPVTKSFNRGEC
# notes: IgG1-mut of Fcmut-01: deletion of 329, G at 330 (EU index)
# B3: Fcmut-06 (antibody, human IgG1, kappa, L234A L235A)
# heavy: QVQLVQSGAEVKKPGSSVKVSCKASGYSFSSYNIHWVRQAPGQGLEWMGYIAPFQGDSRYNQKFKGRVTITADKSTSTAYMELSSLRSEDTAVYYCARLNRGNSLDYWGQGTLVTVSSASTKGPSVFPLAPSSKSTSGGTAALGCLVKDYFPEPVTVSWNSGALTSGVHTFPAVLQSSGLYSLSSVVTVPSSSLGTQTYICNVNHKPSNTKVDKKVEPKSCDKTHTCPPCPAPEAAGGPSVFLFPPKPKDTLMISRTPEVTCVVVDVSHEDPEVKFNWYVDGVEVHNAKTKPREEQYNSTYRVVSVLTVLHQDWLNGKEYKCKVSNKALAPIEKTISKAKGQPREPQVYTLPPSREEMTKNQVSLTCLVKGFYPSDIAVEWESNGQPENNYKTTPPVLDSDGSFFLYSKLTVDKSRWQQGNVFSCSVMHEALHNHYTQKSLSLSPGK
# light: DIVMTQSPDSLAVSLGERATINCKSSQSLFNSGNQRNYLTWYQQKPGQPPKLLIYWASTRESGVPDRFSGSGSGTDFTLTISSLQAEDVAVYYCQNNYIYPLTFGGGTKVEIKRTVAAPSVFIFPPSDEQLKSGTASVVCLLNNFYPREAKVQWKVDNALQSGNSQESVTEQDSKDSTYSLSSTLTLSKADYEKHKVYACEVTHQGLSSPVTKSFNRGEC
# notes: IgG1-mut of Fcmut-01: L234A + L235A + deletion of 329 (EU index)
# B4: Fcmut-04 (antibody, human IgG1, kappa)
# heavy: QVQLVQSGAEVKKPGSSVKVSCKASGYSFSSYNIHWVRQAPGQGLEWMGYIAPFQGDSRYNQKFKGRVTITADKSTSTAYMELSSLRSEDTAVYYCARLNRGNSLDYWGQGTLVTVSSASTKGPSVFPLAPSSKSTSGGTAALGCLVKDYFPEPVTVSWNSGALTSGVHTFPAVLQSSGLYSLSSVVTVPSSSLGTQTYICNVNHKPSNTKVDKKVEPKSCDKTHTCPPCPAPELLGGPSVFLFPPKPKDTLMISRTPEVTCVVVDVSHEDPEVKFNWYVDGVEVHNAKTKPREEQYNSTYRVVSVLTVLHQDWLNGKEYKCKVSNKALPIEKTISKAKGQPREPQVYTLPPSREEMTKNQVSLTCLVKGFYPSDIAVEWESNGQPENNYKTTPPVLDSDGSFFLYSKLTVDKSRWQQGNVFSCSVMHEALHNHYTQKSLSLSPGK
# light: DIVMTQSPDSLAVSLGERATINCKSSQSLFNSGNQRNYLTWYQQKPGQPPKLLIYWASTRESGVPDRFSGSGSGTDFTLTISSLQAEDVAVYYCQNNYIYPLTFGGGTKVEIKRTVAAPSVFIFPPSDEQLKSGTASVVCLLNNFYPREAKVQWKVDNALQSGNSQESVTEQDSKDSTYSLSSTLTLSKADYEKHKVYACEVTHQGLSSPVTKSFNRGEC
# notes: IgG1-mut of Fcmut-01: deletion of 329 and 330 (EU index)
# B5: Fcmut-24 (antibody, human IgG4 S228P, kappa, F234A L235A)
# heavy: QVQLVQSGAEVKKPGSSVKVSCKASGYSFSSYNIHWVRQAPGQGLEWMGYIAPFQGDSRYNQKFKGRVTITADKSTSTAYMELSSLRSEDTAVYYCARLNRGNSLDYWGQGTLVTVSSASTKGPSVFPLAPCSRSTSESTAALGCLVKDYFPEPVTVSWNSGALTSGVHTFPAVLQSSGLYSLSSVVTVPSSSLGTKTYTCNVDHKPSNTKVDKRVESKYGPPCPPCPAPEAAGGPSVFLFPPKPKDTLMISRTPEVTCVVVDVSQEDPEVQFNWYVDGVEVHNAKTKPREEQFNSTYRVVSVLTVLHQDWLNGKEYKCKVSNKGLSIEKTISKAKGQPREPQVYTLPPSQEEMTKNQVSLTCLVKGFYPSDIAVEWESNGQPENNYKTTPPVLDSDGSFFLYSRLTVDKSRWQEGNVFSCSVMHEALHNHYTQKSLSLSLGK
# light: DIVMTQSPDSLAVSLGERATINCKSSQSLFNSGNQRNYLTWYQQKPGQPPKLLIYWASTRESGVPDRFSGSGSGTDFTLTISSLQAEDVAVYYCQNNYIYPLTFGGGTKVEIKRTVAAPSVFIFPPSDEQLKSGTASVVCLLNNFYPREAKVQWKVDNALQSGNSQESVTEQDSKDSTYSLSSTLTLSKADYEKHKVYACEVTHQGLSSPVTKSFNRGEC
# notes: also called Fcmut-024
# Tests used:
# human C1q [1] = biological target: T5, human C1q (human, UniProt P02745 23-245; P02746 28-253; P02747 29-245); experiment: BLI (Octet), biotinylated antibody on SA sensor, C1q 40 nM
# T5 construct: Bought C1q (Complement Technology); also called C1q antigen
# Experimental: (§1) The antibody was diluted to approximately 100 nM, and C1q (Δ099, Complement Technology) was diluted to 40 nM.
# (§2) Detection was conducted using Fortebio Octet Red96e, and the sensors were arranged according to the positions of the samples. […] After the experiment was completed, KD values were analyzed using ForteBio Octet analysis software, the coordinate axis data were derived, and Graphpad Prism 8 software was used for plotting.
# [2] = biological target: T6, Human CD64/FCGR1A protein (human, UniProt P12314 16-288, limits assumed); experiment: SPR (Biacore T200), his-tagged receptor captured, antibody in flow
# T6 construct: Bought, his-tagged; also called FcγRI; not shown: his tag
# human C1q [3] = biological target: T5, human C1q; experiment: BLI (Octet), biotinylated antibody on SA sensor
# Experimental: as §1, §2
# [4] = biological target: T7, Human FcγRIIIA/CD16A (V176) protein (human, UniProt P08637 17-208); experiment: SPR (Biacore T200);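 note: His-tagged Fc receptors captured on an anti-His antibody chip, Fc-variant antibodies flowed as analyte, 60 s association and 60 s dissociation, fitted by 1:1 or steady-state model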
# T7 construct: Bought, his-tagged; not shown: his tag
# [5] = biological target: T8, Human FcγRIIIB/CD16B (NA2) (human, UniProt O75015 17-200, limits assumed); experiment: SPR (Biacore T200);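 note: His-tagged Fc receptors captured on an anti-His antibody chip, Fc-variant antibodies flowed as analyte, 60 s association and 60 s dissociation, fitted by 1:1 or steady-state model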
# T8 construct: Bought, his-tagged; not shown: his tag
# [6] = biological target: T9, Human FcγRIIIB/CD16B (NA1) (human, UniProt O75015 17-200, limits assumed); experiment: SPR (Biacore T200);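 note: His-tagged Fc receptors captured on an anti-His antibody chip, Fc-variant antibodies flowed as analyte, 60 s association and 60 s dissociation, fitted by 1:1 or steady-state model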
# T9 construct: Bought, his-tagged; not shown: his tag
# [7] = biological target: T1, Human CD32A/FCGR2A protein (167his); experiment: SPR (Biacore T200);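 note: His-tagged Fc receptors captured on an anti-His antibody chip, Fc-variant antibodies flowed as analyte, 60 s association and 60 s dissociation, fitted by 1:1 or steady-state model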
# Text: (§3) The specific procedures were as follows: Each of FcγR and FcRn proteins (for information of each Fc receptor, see Table 2 below) containing a histidine tag was captured to the chip surface to which anti-histidine antibodies were coupled, and the binding and dissociation between the proteins on the chip surface and antibodies in the mobile phase were detected to obtain affinity and kinetic constants.
# (§4) Affinity assay: Each cycle included capture of the receptor, binding of a certain concentration of the antibody carrying the Fc region mutation of the present application, and regeneration of the chip. […] In each cycle, the antibody mutant solution flowed over the chip surface at a flow rate of 30 μL/min, with the binding time of 60 s and the dissociation time of 60 s. […] The obtained data were analyzed using Biacore T200 analysis software (version number 3.1) and using an analysis 1:1 binding or homeostasis analysis model to obtain the corresponding results.
# [8] = biological target: T2, Human CD32B/FCGR2B protein; experiment: SPR (Biacore T200)
# Text: as §3, §4
# [9] = biological target: T3, Human CD32A/FCGR2A protein (167Arg); experiment: SPR (Biacore T200)
# Text: as §3, §4
# [10] = biological target: T10, Human FcγRIIIA/CD16A (F176) protein (human, UniProt P08637 17-208); experiment: SPR (Biacore T200)
# T10 construct: Bought, his-tagged; not shown: his tag
# [11] = biological target: T11, Human FcRn/FCGRT & B2M heterodimeric protein (human, UniProt P55899 24-297; P61769 21-119); experiment: SPR (Biacore T200), FcRn captured, antibody in flow, pH 6.0; pH 6.0
# T11 construct: Bought heterodimer with His and Strep II tags
# Text: as §3, §4
# [12] = biological target: T4, Claudin18.2 (cp0007, Genscript); experiment: BLI (Octet), antibody on AHC sensor, Claudin18.2 100 nM
# Experimental: The antibody and Claudin18.2 (cp0007, Genscript) were diluted to 100 nM, respectively.
# Detection was conducted using Fortebio Octet Red96e, and the sensors were arranged according to the positions of the samples. […] After the experiment was completed, KD values were analyzed using ForteBio Octet analysis software.
# [13] = biological target: T6, Human CD64/FCGR1A protein; experiment: SPR (Biacore T200), his-tagged CD64 captured on anti-His CM5 chip, antibody as analyte, pH 7.4, 1:1 binding fit
# Text: as §3, §4
# [14] = biological target: T6, Human CD64/FCGR1A protein; experiment: SPR (Biacore T200)
# Text: as §3, §4
# [15] = biological target: T6, Human CD64/FCGR1A protein; experiment: SPR (Biacore T200); remark: listed apart in the source
# Text: as §3, §4
# human C1q [16] = biological target: T5, human C1q; experiment: BLI (Octet), biotinylated antibody on SA sensor; remark: listed apart in the source
# Experimental: as §1, §2
# T11 sequence (P55899 24-297 limits assumed, chain 1 of 2): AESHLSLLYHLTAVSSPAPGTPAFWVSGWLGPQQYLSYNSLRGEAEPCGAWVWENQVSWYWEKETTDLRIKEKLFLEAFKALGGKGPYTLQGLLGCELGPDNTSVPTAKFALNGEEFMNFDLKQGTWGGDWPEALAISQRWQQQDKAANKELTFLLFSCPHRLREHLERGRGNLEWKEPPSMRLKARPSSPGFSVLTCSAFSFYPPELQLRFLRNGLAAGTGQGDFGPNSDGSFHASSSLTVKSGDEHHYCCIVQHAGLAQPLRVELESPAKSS
# T11 sequence (P61769 21-119 limits assumed, chain 2 of 2): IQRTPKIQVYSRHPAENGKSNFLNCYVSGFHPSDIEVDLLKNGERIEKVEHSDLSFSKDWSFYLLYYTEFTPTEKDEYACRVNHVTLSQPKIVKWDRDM
# T10 sequence (P08637 17-208 limits assumed): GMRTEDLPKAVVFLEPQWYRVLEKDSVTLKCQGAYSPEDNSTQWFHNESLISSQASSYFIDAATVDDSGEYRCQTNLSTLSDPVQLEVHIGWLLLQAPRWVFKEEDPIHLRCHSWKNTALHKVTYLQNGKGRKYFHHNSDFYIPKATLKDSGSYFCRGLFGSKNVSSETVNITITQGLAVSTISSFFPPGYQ
# T7 sequence (P08637 17-208 F176V limits assumed): as the sequence (P08637 17-208 limits assumed) above, with F160V counted along it
# T8 sequence (O75015 17-200 N65S limits assumed): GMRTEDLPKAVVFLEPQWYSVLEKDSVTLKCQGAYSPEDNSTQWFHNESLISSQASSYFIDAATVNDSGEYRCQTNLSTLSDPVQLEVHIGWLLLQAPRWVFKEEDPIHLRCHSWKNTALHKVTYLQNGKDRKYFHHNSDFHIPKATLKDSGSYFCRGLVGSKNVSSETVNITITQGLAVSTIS
# T6 sequence (P12314 16-288 limits assumed): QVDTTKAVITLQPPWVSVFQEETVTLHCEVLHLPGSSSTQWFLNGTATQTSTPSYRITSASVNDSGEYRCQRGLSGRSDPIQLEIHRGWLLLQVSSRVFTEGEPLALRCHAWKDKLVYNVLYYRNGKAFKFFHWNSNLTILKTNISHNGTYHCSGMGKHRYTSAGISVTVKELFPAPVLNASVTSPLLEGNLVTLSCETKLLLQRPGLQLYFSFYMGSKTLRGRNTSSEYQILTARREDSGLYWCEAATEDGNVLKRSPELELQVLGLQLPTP
# T5 sequence (P02745 23-245 limits assumed, chain 1 of 3): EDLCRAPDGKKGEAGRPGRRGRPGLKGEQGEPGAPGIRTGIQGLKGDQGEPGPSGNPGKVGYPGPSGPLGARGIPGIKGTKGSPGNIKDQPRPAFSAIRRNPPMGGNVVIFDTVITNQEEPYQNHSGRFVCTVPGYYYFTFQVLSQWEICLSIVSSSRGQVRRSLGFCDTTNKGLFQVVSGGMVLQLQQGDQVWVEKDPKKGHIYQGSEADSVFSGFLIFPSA
# T5 sequence (P02746 28-253 limits assumed, chain 2 of 3): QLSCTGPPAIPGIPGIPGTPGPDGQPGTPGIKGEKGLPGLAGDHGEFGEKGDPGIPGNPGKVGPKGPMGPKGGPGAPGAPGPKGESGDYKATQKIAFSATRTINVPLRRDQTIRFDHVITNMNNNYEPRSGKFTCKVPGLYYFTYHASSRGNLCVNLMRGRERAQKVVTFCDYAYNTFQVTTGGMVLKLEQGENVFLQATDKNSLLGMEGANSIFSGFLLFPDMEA
# T5 sequence (P02747 29-245 limits assumed, chain 3 of 3): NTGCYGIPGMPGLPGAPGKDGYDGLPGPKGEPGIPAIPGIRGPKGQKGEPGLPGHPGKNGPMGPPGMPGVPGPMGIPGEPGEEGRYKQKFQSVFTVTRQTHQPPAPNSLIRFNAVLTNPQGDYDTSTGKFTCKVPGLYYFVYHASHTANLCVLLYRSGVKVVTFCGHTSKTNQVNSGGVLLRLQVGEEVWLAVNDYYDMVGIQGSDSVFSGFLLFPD
# T9 sequence (O75015 other isoform, or with tags, fused parts or gaps limits assumed): as the sequence (O75015 17-200 N65S limits assumed) above, with S20R, S49N, N66D, I90V counted along it
Binder,Response (human C1q [1]),Kd [2],binding result (human C1q [3]),binding result [4],binding result [5],binding result [6],binding result [7],binding result [8],binding result [9],binding result [10],Kd [11],Kd [12],Response [12],koff [12],kon [12],koff [13],kon [13],fold reduction of binding against Fcmut-01 [14],binding result [15],binding result (human C1q [16])
B1,0.0007 nm,9.31 nM,no binding (tested: C1q 40 nM),no binding (tested: 400 nM),no binding (tested: 400 nM),no binding (tested: 400 nM),no binding (tested: 400 nM),no binding (tested: 400 nM),no binding (tested: 400 nM),no binding (tested: 400 nM),447 nM,2.73 nM,0.138 nm,0.0002 s⁻¹,73200 M⁻¹ s⁻¹,0.0136 s⁻¹,1.46e+06 M⁻¹ s⁻¹,8.7 times,,
B2,0.0016 nm,13.8 nM,no binding (tested: C1q 40 nM),no binding (tested: 400 nM),no binding (tested: 400 nM),no binding (tested: 400 nM),no binding (tested: 400 nM),no binding (tested: 400 nM),no binding (tested: 400 nM),no binding (tested: 400 nM),317 nM,2.9 nM,0.15 nm,0.0002 s⁻¹,69000 M⁻¹ s⁻¹,0.0377 s⁻¹,2.74e+06 M⁻¹ s⁻¹,12.9 times,,
B3,-0.0035 nm,,,no binding (tested: 400 nM),no binding (tested: 400 nM),no binding (tested: 400 nM),no binding (tested: 400 nM),no binding (tested: 400 nM),no binding (tested: 400 nM),no binding (tested: 400 nM),284 nM,2.44 nM,0.144 nm,0.0002 s⁻¹,81900 M⁻¹ s⁻¹,,,,no binding (tested: 400 nM),
B4,-0.0027 nm,15 nM,,no binding (tested: 400 nM),no binding (tested: 400 nM),no binding (tested: 400 nM),no binding (tested: 400 nM),no binding (tested: 400 nM),no binding (tested: 400 nM),no binding (tested: 400 nM),505 nM,2.83 nM,0.146 nm,0.0002 s⁻¹,70700 M⁻¹ s⁻¹,0.0141 s⁻¹,938000 M⁻¹ s⁻¹,14 times,,
B5,,,,,,,,,,,,,,,,,,,,no binding (tested: C1q 40 nM)
